Laboratory results from IntAct's records for PubMed 11447112.

Molecular target: gapa_dicdi gapA (UniProt O00899)
Sequence (O00899 whole entry): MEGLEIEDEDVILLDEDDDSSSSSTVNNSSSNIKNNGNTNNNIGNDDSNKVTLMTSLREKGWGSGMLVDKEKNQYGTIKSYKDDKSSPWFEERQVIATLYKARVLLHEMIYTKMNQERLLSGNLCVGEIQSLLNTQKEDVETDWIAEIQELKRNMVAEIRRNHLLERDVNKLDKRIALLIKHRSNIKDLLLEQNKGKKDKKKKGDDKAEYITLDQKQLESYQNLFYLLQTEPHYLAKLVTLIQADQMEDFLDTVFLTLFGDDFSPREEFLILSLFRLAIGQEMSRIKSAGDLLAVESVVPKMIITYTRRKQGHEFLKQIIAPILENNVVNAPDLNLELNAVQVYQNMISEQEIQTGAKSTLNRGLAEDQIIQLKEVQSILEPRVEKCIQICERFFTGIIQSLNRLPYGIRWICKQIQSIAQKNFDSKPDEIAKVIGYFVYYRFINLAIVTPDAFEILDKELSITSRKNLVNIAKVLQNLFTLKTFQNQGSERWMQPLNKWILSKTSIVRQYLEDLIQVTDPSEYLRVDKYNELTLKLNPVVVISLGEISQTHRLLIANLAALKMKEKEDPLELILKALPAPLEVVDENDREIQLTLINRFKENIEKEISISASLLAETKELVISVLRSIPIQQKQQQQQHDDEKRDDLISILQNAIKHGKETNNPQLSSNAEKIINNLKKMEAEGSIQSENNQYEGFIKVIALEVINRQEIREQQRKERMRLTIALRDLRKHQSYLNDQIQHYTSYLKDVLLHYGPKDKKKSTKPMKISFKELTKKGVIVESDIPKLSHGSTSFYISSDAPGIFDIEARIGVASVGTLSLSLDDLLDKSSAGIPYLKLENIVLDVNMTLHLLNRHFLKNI

Rho-related protein rac1A (Dictyostelium discoideum (Slime mold)), P34144 G12N
effect of a mutation on the interaction: disrupting interaction
